Where a chain is given by its changes, count along the chain named. Names and notes keep the numbering of the source.
B1: FcεRIα extracellular domain mutant K117D (receptor)
chain: VPQKPKVSLNPPWNRIFKGENVTLTCNGNNFFEVSSTKWFHNGSLSEETNSSLNIVNAKFEDSGEYKCQHQQVNESEPVYLEVFSDWLLLQASAEVVMEGQPLFLRCHGWRNWDVYDVIYYKDGEALKYWYENHNISITNATVEDSGTYYCTGKVWQLDYESEPLNITVIKAPREKYWLQ
B2: FcεRIα extracellular domain mutant Y131A (receptor)
chain: B1 chain with D117K, Y131A
B3: FcεRIα extracellular domain mutant W87D (receptor)
chain: B1 chain with W87D, D117K
B4: FcεRIα extracellular domain mutant D159A (receptor)
chain: B1 chain with D117K, D159A
B5: FcεRIα extracellular domain mutant V155A (receptor)
chain: B1 chain with D117K, V155A
B6: FcεRIα extracellular domain mutant W113A (receptor)
chain: B1 chain with W113A, D117K

molecular target: T1, purified human IgE (Abcam) (human, UniProt P01854-1 1-428); experiment: not told
T1 construct: also called free IgE; secreted IgE
T1 sequence (P01854 other isoform, or with tags, fused parts or gaps): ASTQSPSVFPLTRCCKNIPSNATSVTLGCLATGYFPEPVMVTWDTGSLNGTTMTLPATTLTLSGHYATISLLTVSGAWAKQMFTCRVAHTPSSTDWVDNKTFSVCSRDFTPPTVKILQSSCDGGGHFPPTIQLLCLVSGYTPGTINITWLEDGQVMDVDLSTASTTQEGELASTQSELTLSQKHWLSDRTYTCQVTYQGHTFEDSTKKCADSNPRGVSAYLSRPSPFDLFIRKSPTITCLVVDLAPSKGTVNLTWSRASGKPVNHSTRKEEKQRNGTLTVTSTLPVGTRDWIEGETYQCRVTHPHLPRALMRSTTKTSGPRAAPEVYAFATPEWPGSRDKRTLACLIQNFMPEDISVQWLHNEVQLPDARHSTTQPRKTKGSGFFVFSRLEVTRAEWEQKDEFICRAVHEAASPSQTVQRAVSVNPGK

fold affinity reduction over wild type [fold]	Binder
27	B1
3	B2
7	B3
2	B4
10	B5
5	B6
